The source of these data is PMC6767301, “Polyamines Disrupt the KaiABC Oscillator by Inducing Protein Denaturation” (Molecules, 2019).

B1: KaiC (natural protein, Synechococcus elongatus PCC 7942, UniProt Q79PF4 1-519, looked up)
chain: MTSAEMTSPNNNSEHQAIAKMRTMIEGFDDISHGGLPIGRSTLVSGTSGTGKTLFSIQFLYNGIIEFDEPGVFVTFEETPQDIIKNARSFGWDLAKLVDEGKLFILDASPDPEGQEVVGGFDLSALIERINYAIQKYRARRVSIDSVTSVFQQYDASSVVRRELFRLVARLKQIGATTVMTTERIEEYGPIARYGVEEFVSDNVVILRNVLEGERRRRTLEILKLRGTSHMKGEYPFTITDHGINIFPLGAMRLTQRSSNVRVSSGVVRLDEMCGGGFFKDSIILATGATGTGKTLLVSRFVENACANKERAILFAYEESRAQLLRNAYSWGMDFEEMERQNLLKIVCAYPESAGLEDHLQIIKSEINDFKPARIAIDSLSALARGVSNNAFRQFVIGVTGYAKQEEITGLFTNTSDQFMGAHSITDSHISTITDTIILLQYVEIRGEMSRAINVFKMRGSWHDKAIREFMISDKGPDIKDSFRNFERIISGSPTRITVDEKSELSRIVRGVQEKGPES
notes: KaiC, Synechococcus elongatus PCC 7942; The sample is a mixture of phosphorylated and de-phosphorylated KaiC; A few vector residues may remain after PreScission cleavage (surmised); also called Kai proteins; clock proteins; source: E. coli, purified (GSH resin, GST removed by PreScission protease, size-exclusion chromatography)
B2: KaiB (natural protein, Synechococcus elongatus PCC 7942, UniProt Q79PF5 1-102, looked up)
chain: MSPRKTYILKLYVAGNTPNSVRALKTLKNILEVEFQGVYALKVIDVLKNPQLAEEDKILATPTLAKVLPLPVRRIIGDLSDREKVLIGLDLLYGELQDSDDF
notes: KaiB, Synechococcus elongatus PCC 7942; A few vector residues may remain after PreScission cleavage (surmised); also called Kai proteins; clock proteins; source: E. coli, purified (GSH resin, GST removed by PreScission protease, size-exclusion chromatography)
B3: KaiA (natural protein, Synechococcus elongatus PCC 7942, UniProt Q79PF6 1-284, looked up)
chain: MLSQIAICIWVESTAILQDCQRALSADRYQLQVCESGEMLLEYAQTHRDQIDCLILVAANPSFRAVVQQLCFEGVVVPAIVVGDRDSEDPDEPAKEQLYHSAELHLGIHQLEQLPYQVDAALAEFLRLAPVETMADHIMLMGANHDPELSSQQRDLAQRLQERLGYLGVYYKRDPDRFLRNLPAYESQKLHQAMQTSYREIVLSYFSPNSNLNQSIDNFVNMAFFADVPVTKVVEIHMELMDEFAKKLRVEGRSEDILLDYRLTLIDVIAHLCEMYRRSIPRET
notes: KaiA, Synechococcus elongatus PCC 7942; A few vector residues may remain after PreScission cleavage (surmised); also called Kai proteins; clock proteins; source: E. coli, purified (GSH resin, GST removed by PreScission protease, size-exclusion chromatography)

This series deals with the molecule itself. The series is described as follows: native gel or EMSA; 6% native PAGE of each Kai protein after 4 h of incubation at 30 °C with polyamines (putrescine, spermidine, spermine); 50 mM Tris-HCl pH 8.0, 150 mM NaCl, 5 mM ATP, 5 mM MgCl2, 0.01% Tween-20; total protein 1.0 mg/mL. Background: In EMSA bound probe runs differently from free probe, usually more slowly.
In the case of B1, the binding result was “binds”.
In the case of B2 it was “binds”; in that of B3, “binds”.
